# Experimental data reported in patent publication US7815907B2, “Antibodies to insulin-like growth factor I receptor” (Amgen Fremont Inc., priority 2001, dated 2010).
# Key:
# IGF-IR [1] = biological target: T1, IGF-IR (Homo sapiens, UniProt P08069); assay: IGF-IR levels in 3T3/IGF-IR tumors by western blot after antibody and/or adriamycin; type: in vivo, nude mice; design: expressed in transfected cells; host or cells: NIH-3T3 (mouse fibroblasts); details: 72 hours after single 250 μg 2.13.2 i.p. or 7.5 mg/kg adriamycin i.v.
# Protocol: Tumors were induced in nude mice as described in Example IX. Mice with established subcutaneous tumors of approximately 400 mm^3 were treated with a single injection of 250 μg 2.13.2 antibody (i.p.) or with 7.5 mg/kg adriamycin (i.v.), either as single agents or in combination, as described in Example IX. 72 hours after administration of the agents, tumors were extracted as described in Example VIII, and equal amounts of the tumor extracts were subjected to sodium […] polyacrylamide gel electrophoresis (SDS PAGE) and western blot analysis using the anti-IGF-IR antibody SC-713 (Santa Cruz). […] Each lane represents equal amounts of protein from individual tumors from individual mice.
# [2] = biological target: T2, extracellular domain of IGF-IR (Homo sapiens, UniProt P08069); assay: BIAcore affinity measurement, Protocol 1; type: binding; details: BIAcore 3000; antibody captured on protein-A, IGF-IR extracellular domain injected
# T2 construct: Different concentrations of the extracellular domain of IGF-IR were injected on the sensorchip
# Protocol: We performed affinity measures of purified antibodies by surface plasmon resonance using the BIAcore 3000 instrument, following the manufacturer's protocols.
# To perform kinetic analyses, protein-A was immobilized on the sensorchip surfaces of the BIAcore. The sensorchip was then used to capture the anti-IGF-IR antibodies of the present invention. Different concentrations of the extracellular domain of IGF-IR were injected on the sensorchip and the binding and dissociation kinetics of the interactions between the anti-IGF-IR antibodies and the extracellular domain of IGF-IR were analyzed. The data were evaluated with global fit Langmuir 1:1, using baseline drift models available on the BIAevaluation software provided by BIAcore.
# [3] = biological target: T3, extracellular domain (ECD) of IGF-IR (Homo sapiens, UniProt P08069); assay: BIAcore competition (epitope mapping); type: binding; details: first antibody bound under saturating conditions
# T3 construct: Different concentrations of the extracellular domain of IGF-IR were injected on the sensorchip
# Description: We conducted BIAcore competition studies to determine whether the antibodies of this invention bind to the same or distinct site on the IGF-IR molecule. We bound the extracellular domain (ECD) of IGF-IR to a BIAcore sensorchip as described above in Example II. We bound a first antibody of the invention to this sensorchip-bound IGF-IR under saturating conditions. We then measured the ability of subsequent secondary antibodies of the invention to compete with the primary antibody for binding to IGF-IR.
# IGF-IR [4] = biological target: T1, IGF-IR; assay: Species crossreactivity by immunoprecipitation/Western blot; type: binding; design: on cells from a variety of animals; endogenous in cells; details: immunoprecipitation, antibody 1 μg/ml
# Protocol: (§1) To perform immunoprecipitation experiments, we plated cells in DMEM high glucose media supplemented with L-glutamine (0.29 mg/ml), 10% heat-inactivated FBS, and 500 μg/ml each of geneticin, penicillin and streptomycin to 50% confluence in T25 flasks. We then added 100 μl of an antibody of the invention in Hank's buffered saline solution (HBSS; Gibco BRL) at a concentration of 1 μg/ml. We incubated the plates for 30 minutes at 37° C. in an incubator and then stimulated the cells with IGF-I at 100 ng/ml for 10 minutes at room temperature. We lysed the cells in RIPA buffer (Harlow and Lane, supra) and immunoprecipitated IGF-IR with 2 μg of pan-specific SC-713 anti-IGF-IR antibody (Santa Cruz) plus protein A agarose beads for 1 hour at 4° C. We pelleted the beads and wash three times with PBS/T (PBS+0.1% Tween-20) and then boiled the beads in 40 μl Laemmli buffer containing 5% βME.
# (§2) The samples prepared as described above were then analyzed by Western blot. We loaded 12 μl of each sample per lane on 4-10% gradient Novex™ gels run with 1×MES buffer (Novex™). Gels were run at 150V for 1 hour or at 200V for approximately 30 minutes. We then transferred the gel to a membrane in Novex™ transfer buffer with 10% methanol either overnight at 100 mA or for 1-1.5 hours at 250 mA. […]
# COS7 IGF-IR = assay: as above; type: binding, old world monkey; details: immunoprecipitation, antibody 1 μg/ml
# Protocol: as §1, §2
# Rhesus IGF-IR = assay: as above; type: binding; details: immunoprecipitation, antibody 1 μg/ml
# Protocol: as §1
# (§3) The samples prepared as described above were then analyzed by Western blot. We loaded 12 μl of each sample per lane on 4-10% gradient Novex™ gels run with 1×MES buffer (Novex™). Gels were run at 150V for 1 hour or at 200V for approximately 30 minutes. We then transferred the gel to a membrane in Novex™ transfer buffer with 10% methanol either overnight at 100 mA or for 1-1.5 hours at 250 mA. We then allowed the membrane to dry completely and blocked at room temperature with TBS (Tris-buffered saline pH 8.0) containing Superblock (Pierce Chemical Co.). We added the IGF-IR blotting antibody SC713 (Santa Cruz) to detect immunoprecipitated IGF-IR.
# rabbit IGF-IR = assay: as above; type: binding; details: immunoprecipitation, antibody 1 μg/ml
# Protocol: as §1, §3
# guinea pig IGF-IR = assay: as above; type: binding; details: immunoprecipitation, antibody 1 μg/ml
# Protocol: as §1, §3
# canine IGF-IR = assay: as above; type: binding; details: immunoprecipitation, antibody 1 μg/ml
# Protocol: as §1, §3
# IGF-IR from the marmoset = assay: as above; type: binding; details: immunoprecipitation, antibody 1 μg/ml
# Protocol: as §1, §3
molecule,measurement,setting,value
"COc1cccc2c1C(=O)c1c(O)c3c(c(O)c1C2=O)C[C@@](O)(C(=O)CO)C[C@@H]3O[C@H]1C[C@H](N)[C@H](O)[C@H](C)O1 [adriamycin, reference compound]","IGF-IR levels in tumors, single agent",IGF-IR [1],little effect on IGF-IR levels
"4.17.3: human IgG2κ monoclonal antibody specific for IGF-IR from hybridoma 4.17.3 (ATCC PTA-2793); named as activating antibody (antibody, V domains shown) VH: PGLVKPSETLSLTCTVSGGSISSYYWSWIRQPPGKGLEWIGYIYYSGSTNYNPSLKSRVTISVDTSKNQFSLKLSSVTAADTAVYYCARTYSSSFYYYGMDVWGQGTTVTVSS VL: GDRVTITCRASQSISTFLNWYQQKPGKAPKLLIHVASSLQGGVPSRFSGSGSGTDFTLTISSLQPEDFATYYCQQSYNAPLTFGGGTKVEIK",Kd,[2],13 nM
"2.14.3: human IgG2κ monoclonal antibody specific for IGF-IR from hybridoma 2.14.3 (ATCC PTA-2790) (antibody, V domains shown) VH: GPGLVKPSETLSLTCTVSGGSISNYYWSWIRQPAGKGLEWIGRIYTSGSPNYNPSLKSRVTMSVDTSKNQFSLKLNSVTAADTAVYYCAVTIFGVVIIFDYWGQGTLVTVSS VL: SSLSASVGDRVTFTCRASQDIRRDLGWYQQKPGKAPKRLIYAASRLQSGVPSRFSGSGSGTEFTLTISSLQPEDFATYYCLQHNNYPRTFGQGTEVEIIR",binding site on IGF-IR (competition between antibodies),[3],bind to sites on IGF-IR that are different
same,Kd,[2],0.641 nM
2.12.1: human IgG2κ monoclonal antibody specific for IGF-IR from hybridoma 2.12.1 (ATCC PTA-2792) (antibody) heavy: QAQLVESGGGLVKPGGSLRLSCAASGFTFSDYYMSWIRQAPGKGLEWVSYISSSGSTRDYADSVKGRFTISRDNAKNSLYLQMNSLRAEDTAVYYCVRDGVETTFYYYYYGMDVWGQGTTVTVSSASTKGPSVFPLAPCSRSTSESTAALGCLVKDYFPEPVTVSWNSGALTSGVHTFPAVLQSSGLYSLSSVVTVPSSNFGTQTYTCNVDHKPSNTKVDKTVERKCCVECPPCPAPPVAGPSVFLFPPKPKDTLMISRTPEVTCVVVDVSHEDPEVQFNWYVDGVEVHNAKTKPREEQFNSTFRVVSVLTVVHQDWLNGKEYKCKVSNKGLPAPIEKTISKTKGQPREPQVYTLPPSREEMTKNQVSLTCLVKGFYPSDIAVEWESNGQPENNYKTTPPMLDSDGSFFLYSKLTVDKSRWQQGNVFSCSVMHEALHNHYTQKSLSLSPGK light: DIQMTQSPSSLSASVGDRVTFTCRASQDIRRDLGWYQQKPGKAPKRLIYAASRLQSGVPSRFSGSGSGTEFTLTISSLQPEDFATYYCLQHNNYPRTFGQGTEVEIIRTVAAPSVFIFPPSDEQLKSGTASVVCLLNNFYPREAKVQWKVDNALQSGNSQESVTEQDSKDSTYSLSSTLTLSKADYEKHKVYACEVTHQGLSSPVTKSFNRGEC,binding to human IGF-IR,IGF-IR [4],able to bind
same,binding to COS7 IGF-IR,COS7 IGF-IR,able to bind
same,Kd,[2],7.37 nM
same,binding to Rhesus IGF-IR,Rhesus IGF-IR,able to bind
same,binding to rabbit IGF-IR,rabbit IGF-IR,not
same,binding to guinea pig IGF-IR,guinea pig IGF-IR,not
same,binding to canine IGF-IR,canine IGF-IR,not
same,binding to marmoset IGF-IR,IGF-IR from the marmoset,not
